Source: PMC7183857

Target: CA_(E180A) and CA_(E187A)
Experiment: co-sedimentation

## MxB_(1–35)-MBPdi (from UniProt P20592 1-35)
  binding as percent of WT CA tubes: 73 to 83 % of WT
